Test results reported in US20230357348A1 (AstraZeneca / MedImmune, published 2023).
Read-outs that look alike come from different tables or passages of the source. Starred links: 1 amine or outer side, 2 acyl side, 3 side chain; linkers in the order of their positions; H or OH if unused. Non-standard residues stand in square brackets, D forms with d. Groups on a side chain read outwards from the residue. Primed or numbered codes have the meaning given here. No end group written: not given here. *: point of attachment. C20 diacid = O=C(O)CCCCCCCCCCCCCCCCCCC(=O)*; C18 diacid = O=C(O)CCCCCCCCCCCCCCCCC(=O)*; γGlu = O=C(O)[C@H](CCC(=O)[*:2])N[*:1]; Stearoyl = CCCCCCCCCCCCCCCCCC(=O)*; Palmitoyl = CCCCCCCCCCCCCCCC(=O)*; αMeF = C[C@](N)(Cc1ccccc1)C(=O)O; (PEG)2 = polyethylene glycol 2; PEG2′ = polyethylene glycol 2; AEEA = NCCOCCOCC(=O)O; Aib = CC(C)(N)C(=O)O

B1: Peptide 392 (of Table 9, position 10) (peptide)
peptide: H[Aib]HGS[αMeF]TSDK([AEEA-AEEA-γGlu-C18 diacid])SK[αMeF]LDSRAAQD[αMeF]VQ[Aib]IANT-NH2
modifications: N-terminus assumed
SMILES: CC[C@H](C)[C@H](NC(=O)C(C)(C)NC(=O)[C@H](CCC(N)=O)NC(=O)[C@@H](NC(=O)[C@](C)(Cc1ccccc1)NC(=O)[C@H](CC(=O)O)NC(=O)[C@H](CCC(N)=O)NC(=O)[C@H](C)NC(=O)[C@H](C)NC(=O)[C@H](CCCNC(=N)N)NC(=O)[C@H](CO)NC(=O)[C@H](CC(=O)O)NC(=O)[C@H](CC(C)C)NC(=O)[C@](C)(Cc1ccccc1)NC(=O)[C@H](CCCCN)NC(=O)[C@H](CO)NC(=O)[C@H](CCCCNC(=O)COCCOCCNC(=O)COCCOCCNC(=O)CC[C@H](NC(=O)CCCCCCCCCCCCCCCCC(=O)O)C(=O)O)NC(=O)[C@H](CC(=O)O)NC(=O)[C@H](CO)NC(=O)[C@@H](NC(=O)[C@](C)(Cc1ccccc1)NC(=O)[C@H](CO)NC(=O)CNC(=O)[C@H](Cc1c[nH]cn1)NC(=O)C(C)(C)NC(=O)[C@@H](N)Cc1c[nH]cn1)[C@@H](C)O)C(C)C)C(=O)N[C@@H](C)C(=O)N[C@@H](CC(N)=O)C(=O)N[C@H](C(N)=O)[C@@H](C)O
B2: Peptide 360 (peptide)
peptide: H[Aib]IGS[αMeF]TSDVSK[αMeF]LDSRAAQDFVK([AEEA-AEEA-γGlu-C20 diacid])WIANT-NH2
modifications: N-terminus assumed
SMILES: CC[C@H](C)[C@H](NC(=O)[C@H](Cc1c[nH]c2ccccc12)NC(=O)[C@H](CCCCNC(=O)COCCOCCNC(=O)COCCOCCNC(=O)CC[C@H](NC(=O)CCCCCCCCCCCCCCCCCCC(=O)O)C(=O)O)NC(=O)[C@@H](NC(=O)[C@H](Cc1ccccc1)NC(=O)[C@H](CC(=O)O)NC(=O)[C@H](CCC(N)=O)NC(=O)[C@H](C)NC(=O)[C@H](C)NC(=O)[C@H](CCCNC(=N)N)NC(=O)[C@H](CO)NC(=O)[C@H](CC(=O)O)NC(=O)[C@H](CC(C)C)NC(=O)[C@](C)(Cc1ccccc1)NC(=O)[C@H](CCCCN)NC(=O)[C@H](CO)NC(=O)[C@@H](NC(=O)[C@H](CC(=O)O)NC(=O)[C@H](CO)NC(=O)[C@@H](NC(=O)[C@](C)(Cc1ccccc1)NC(=O)[C@H](CO)NC(=O)CNC(=O)[C@@H](NC(=O)C(C)(C)NC(=O)[C@@H](N)Cc1c[nH]cn1)[C@@H](C)CC)[C@@H](C)O)C(C)C)C(C)C)C(=O)N[C@@H](C)C(=O)N[C@@H](CC(N)=O)C(=O)N[C@H](C(N)=O)[C@@H](C)O
B3: Peptide 355 (peptide)
peptide: HXHGSXTSDVSKXLDSQAAQDFVXWIANT
modifications: Aib at 2; αMePhe at 6 and 13; K((PEG)2-(PEG)2-γE-γE-C20diacid)24; C-terminal amide
B4: Peptide 357 (peptide)
peptide: HXHGSXTSDVSKXLDSQAAQDFVXWIANT
modifications: Aib at 2; αMePhe at 6 and 13; K(γE-γE-(PEG)2-γE-γE-C20diacid)24; C-terminal amide
B5: Peptide 361 (peptide)
peptide: H[Aib]IGS[αMeF]TSDVSK[αMeF]LDSRAAQDFVK([AEEA-AEEA-γGlu-C18 diacid])WIANT-NH2
modifications: N-terminus assumed
SMILES: CC[C@H](C)[C@H](NC(=O)[C@H](Cc1c[nH]c2ccccc12)NC(=O)[C@H](CCCCNC(=O)COCCOCCNC(=O)COCCOCCNC(=O)CC[C@H](NC(=O)CCCCCCCCCCCCCCCCC(=O)O)C(=O)O)NC(=O)[C@@H](NC(=O)[C@H](Cc1ccccc1)NC(=O)[C@H](CC(=O)O)NC(=O)[C@H](CCC(N)=O)NC(=O)[C@H](C)NC(=O)[C@H](C)NC(=O)[C@H](CCCNC(=N)N)NC(=O)[C@H](CO)NC(=O)[C@H](CC(=O)O)NC(=O)[C@H](CC(C)C)NC(=O)[C@](C)(Cc1ccccc1)NC(=O)[C@H](CCCCN)NC(=O)[C@H](CO)NC(=O)[C@@H](NC(=O)[C@H](CC(=O)O)NC(=O)[C@H](CO)NC(=O)[C@@H](NC(=O)[C@](C)(Cc1ccccc1)NC(=O)[C@H](CO)NC(=O)CNC(=O)[C@@H](NC(=O)C(C)(C)NC(=O)[C@@H](N)Cc1c[nH]cn1)[C@@H](C)CC)[C@@H](C)O)C(C)C)C(C)C)C(=O)N[C@@H](C)C(=O)N[C@@H](CC(N)=O)C(=O)N[C@H](C(N)=O)[C@@H](C)O
B6: Peptide 353 (peptide)
peptide: HXHGSXTSDVSKXLDSQAAQDFVXWIANT
modifications: Aib at 2; αMePhe at 6 and 13; K(γE-γE-(PEG)2-γE-γE-C18diacid)24 (printed YE-YE-(PEG)2-γE-γE-); C-terminal amide
B7: Peptide 368 (peptide)
peptide: H[Aib]HGS[αMeF]TSDVSK[αMeF]LDSR[Aib]AQDFVK([AEEA-AEEA-γGlu-C20 diacid])WIANT-NH2
modifications: N-terminus assumed
SMILES: CC[C@H](C)[C@H](NC(=O)[C@H](Cc1c[nH]c2ccccc12)NC(=O)[C@H](CCCCNC(=O)COCCOCCNC(=O)COCCOCCNC(=O)CC[C@H](NC(=O)CCCCCCCCCCCCCCCCCCC(=O)O)C(=O)O)NC(=O)[C@@H](NC(=O)[C@H](Cc1ccccc1)NC(=O)[C@H](CC(=O)O)NC(=O)[C@H](CCC(N)=O)NC(=O)[C@H](C)NC(=O)C(C)(C)NC(=O)[C@H](CCCNC(=N)N)NC(=O)[C@H](CO)NC(=O)[C@H](CC(=O)O)NC(=O)[C@H](CC(C)C)NC(=O)[C@](C)(Cc1ccccc1)NC(=O)[C@H](CCCCN)NC(=O)[C@H](CO)NC(=O)[C@@H](NC(=O)[C@H](CC(=O)O)NC(=O)[C@H](CO)NC(=O)[C@@H](NC(=O)[C@](C)(Cc1ccccc1)NC(=O)[C@H](CO)NC(=O)CNC(=O)[C@H](Cc1c[nH]cn1)NC(=O)C(C)(C)NC(=O)[C@@H](N)Cc1c[nH]cn1)[C@@H](C)O)C(C)C)C(C)C)C(=O)N[C@@H](C)C(=O)N[C@@H](CC(N)=O)C(=O)N[C@H](C(N)=O)[C@@H](C)O
B8: Peptide 382 (peptide)
peptide: H[Aib]HGS[αMeF]TSDVSK[αMeF]LDSR[Aib]AQDFVK([AEEA-AEEA-γGlu-γGlu-C18 diacid])SIANTGG-NH2
modifications: N-terminus assumed
SMILES: CC[C@H](C)[C@H](NC(=O)[C@H](CO)NC(=O)[C@H](CCCCNC(=O)COCCOCCNC(=O)COCCOCCNC(=O)CC[C@H](NC(=O)CC[C@H](NC(=O)CCCCCCCCCCCCCCCCC(=O)O)C(=O)O)C(=O)O)NC(=O)[C@@H](NC(=O)[C@H](Cc1ccccc1)NC(=O)[C@H](CC(=O)O)NC(=O)[C@H](CCC(N)=O)NC(=O)[C@H](C)NC(=O)C(C)(C)NC(=O)[C@H](CCCNC(=N)N)NC(=O)[C@H](CO)NC(=O)[C@H](CC(=O)O)NC(=O)[C@H](CC(C)C)NC(=O)[C@](C)(Cc1ccccc1)NC(=O)[C@H](CCCCN)NC(=O)[C@H](CO)NC(=O)[C@@H](NC(=O)[C@H](CC(=O)O)NC(=O)[C@H](CO)NC(=O)[C@@H](NC(=O)[C@](C)(Cc1ccccc1)NC(=O)[C@H](CO)NC(=O)CNC(=O)[C@H](Cc1c[nH]cn1)NC(=O)C(C)(C)NC(=O)[C@@H](N)Cc1c[nH]cn1)[C@@H](C)O)C(C)C)C(C)C)C(=O)N[C@@H](C)C(=O)N[C@@H](CC(N)=O)C(=O)N[C@H](C(=O)NCC(=O)NCC(N)=O)[C@@H](C)O

Tests used:
Test in all cases: cell-based or functional assay
[1] = molecular target: T1, human GLP-1 receptor (hGLP-1R) (human, UniProt P43220 24-463)
[2] = molecular target: T2, human glucagon receptor (hGCGR) (human, UniProt P47871 26-477)
[3] = molecular target: T1, human GLP-1 receptor (hGLP-1R); remark: listed apart in the source
[4] = molecular target: T2, human glucagon receptor (hGCGR); remark: listed apart in the source
[5] = molecular target: T1, human GLP-1 receptor (hGLP-1R); remark: listed apart in the source
[6] = molecular target: T2, human glucagon receptor (hGCGR); remark: listed apart in the source

T2 sequence (P47871 26-477): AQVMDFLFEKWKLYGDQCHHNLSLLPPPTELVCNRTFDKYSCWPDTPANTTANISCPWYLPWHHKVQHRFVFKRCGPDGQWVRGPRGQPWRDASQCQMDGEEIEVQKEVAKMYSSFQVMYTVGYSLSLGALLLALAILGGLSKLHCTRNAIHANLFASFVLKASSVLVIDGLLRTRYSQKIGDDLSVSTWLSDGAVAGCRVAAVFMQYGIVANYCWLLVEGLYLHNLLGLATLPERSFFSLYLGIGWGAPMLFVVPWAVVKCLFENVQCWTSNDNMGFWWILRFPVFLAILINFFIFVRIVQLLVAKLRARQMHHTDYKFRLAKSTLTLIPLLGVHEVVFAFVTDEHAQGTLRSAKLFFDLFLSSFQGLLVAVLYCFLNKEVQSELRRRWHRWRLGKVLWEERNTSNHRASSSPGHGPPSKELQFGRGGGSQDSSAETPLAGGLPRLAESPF

| Binder | hGLP-1R EC50 (pM); cAMP production [1] [pM] | hGluc-R EC50 (pM); cAMP production [2] [pM] | also measured |
| --- | --- | --- | --- |
| HXHGSXTSDVSKXLDSQAAQDFVXWIANT (Aib at 2; αMePhe at 6 and 13; K(γE-C20diacid)24; C-terminal amide) [Peptide 354] | 1110 | 902 | – |
| H[Aib]HGS[αMeF]TSDVSK[αMeF]LDSRAAQDFVK([AEEA-AEEA-γGlu-C20 diacid])WIANT-NH2 (not fully specified) [Peptide 367] | 139 | 72.4 | – |
| B1 | – | – | hGLP-1R EC50 (pM); cAMP production [3]: 312 pM; hGluc-R EC50 (pM); cAMP production [4]: 6920 pM |
| H[Aib]QGS[αMeF]TSDK([PEG2′-PEG2′-γGlu-Palmitoyl])SKILDSRAAQD[αMeF]VEWIANT-NH2 [Peptide 396 (of Table 9, position 10)] | – | – | hGLP-1R EC50 (pM); cAMP production [3]: 0.583 pM; hGluc-R EC50 (pM); cAMP production [4]: 11.8 pM |
| HXHGSXTSDVSKXLDSQAAQDFVXWIANT (Aib at 2; αMePhe at 6 and 13; K(O2Oc-O2Oc-γE-C20diacid)24; C-terminal amide) [Peptide 356] | 304 | 316 | – |
| B2 | 108 | 5640 | – |
| H[Aib]HGS[αMeF]TSDVSK[αMeF]LDSQAAQD[αMeF]VK([AEEA-AEEA-γGlu-γGlu-C20 diacid])[Aib]IANT-NH2 [Peptide 384] | 797 | 1240 | – |
| HXHGTFTSDVSKXLDSQAAQDFVXWIANT (Aib at 2; αMePhe at 13; K(γE-C20diacid)24; C-terminal amide) [Peptide 347] | 4970 | 597 | – |
| B3 | 424 | 478 | – |
| B4 | 917 | 550 | – |
| H[Aib]QGS[αMeF]TSDVSKK([(PEG)2-(PEG)2-γGlu-Palmitoyl])LDSRAAQD[αMeF]VEWIANT-NH2 [Peptide 402 (of Table 10, position 13)] | – | – | hGLP-1R EC50 (pM); cAMP production [5]: 1.04 pM; hGluc-R EC50 (pM); cAMP production [6]: 18.1 pM |
| HXIGSXTSDVSKXLDSQAAQDFVXWIANT (Aib at 2; αMePhe at 6 and 13; K(O2Oc-O2Oc-γE-C18diacid)24; C-terminal amide) [Peptide 359] | 46.1 | 5050 | – |
| HSQGS[αMeF]TSDVSKK([AEEA-AEEA-γGlu-γGlu-Stearoyl])LDSQAAQD[αMeF]VE[Aib]LANT-NH2 [Peptide 404 (of Table 10, position 13)] | – | – | hGLP-1R EC50 (pM); cAMP production [5]: 5.65 pM; hGluc-R EC50 (pM); cAMP production [6]: 21.8 pM |
| B5 | 35.7 | 23.6 | – |
| B6 | 311 | 163 | – |
| HXHGTFTSDVSKXLDSQAAQDFVXWIANT (Aib at 2; αMePhe at 6 and 13; K(O2Oc-O2Oc-γE-C18diacid)24; C-terminal amide) [Peptide 348] | 70.1 | 4110 | – |
| B7 | 186 | 290 | – |
| B8 | 56 | 329 | – |
| HXQGSXTSDVSKXLDSQAAQDFVXWIANT (Aib at 2; αMePhe at 6 and 13; K(O2Oc-O2Oc-γE-C18diacid)24; C-terminal amide) [Peptide 349] | 121 | 83.7 | – |
